Measurements taken from the supplement of paper PMC7125110.
± gives the standard error. For part of these data: Variants at the floor of the assay were thinned out.

B1: glmS ribozyme (parent)
chain: AUAAAAGCGCCAGAACUACAGAAAUGUAGUUGACGAGGAGGAGGUUUAUCGAAUUUUCGGCGGAUGCCUCCAAA

Assays:
Conditions in all cases: with glucosamine-6-phosphate
glucosamine-6-phosphate [1] = variants of: B1; experiment: kcat; higher = faster cleavage; RNA array
Summary of the method: (§1)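 Tiles bearing barcoded ribozyme variants, transcribed in situ by E. coli RNA polymerase on sequenced MiSeq chips, were imaged over ~14 h at 37 °C using a hybridised Cy3 probe. Glucosamine-6-phosphate was supplied at 40 μM to 10 mM in HEPES/KCl/Mg(OAc)2 buffer. kobs came from one- or two-exponential decay fits to normalised per-tile medians, and weighted Michaelis–Menten fits then provided kcat and KM.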

glucosamine-6-phosphate [2] = variants of: B1; experiment: KM; higher = weaker cofactor use; RNA array
Summary of the method: as §1

glucosamine-6-phosphate [3] = variants of: B1; experiment: self-cleavage kobs at 2500 uM GlcN6P; higher = faster cleavage; RNA array
Summary of the method: as §1

glucosamine-6-phosphate [4] = variants of: B1; experiment: self-cleavage kobs at 10000 uM GlcN6P; higher = faster cleavage; RNA array
Summary of the method: as §1

glucosamine-6-phosphate [5] = variants of: B1; experiment: self-cleavage kobs at 640 uM GlcN6P; higher = faster cleavage; RNA array
Summary of the method: as §1

glucosamine-6-phosphate [6] = variants of: B1; experiment: self-cleavage kobs at 40 uM GlcN6P; higher = faster cleavage; RNA array
Summary of the method: as §1

glucosamine-6-phosphate [7] = variants of: B1; experiment: self-cleavage kobs at 160 uM GlcN6P; higher = faster cleavage; RNA array
Summary of the method: as §1

Row | Variant | kcat (glucosamine-6-phosphate [1]) | KM (glucosamine-6-phosphate [2]) | self-cleavage kobs at 2500 uM GlcN6P (glucosamine-6-phosphate [3]) | self-cleavage kobs at 10000 uM GlcN6P (glucosamine-6-phosphate [4]) | self-cleavage kobs at 640 uM GlcN6P (glucosamine-6-phosphate [5]) | self-cleavage kobs at 40 uM GlcN6P (glucosamine-6-phosphate [6]) | self-cleavage kobs at 160 uM GlcN6P (glucosamine-6-phosphate [7])
1 | A12G U65G C67A | 0.000136 ± 1.4e-05 s⁻¹ | 3010 ± 610 µM | 6.02e-05 ± 1.2e-05 s⁻¹ | 0.000108 ± 3.2e-05 s⁻¹ | – | – | –
2 | A12G G29U | 0.000345 ± 2.6e-05 s⁻¹ | 3740 ± 440 µM | 0.000134 ± 1.9e-05 s⁻¹ | 0.000255 ± 4.1e-05 s⁻¹ | 5.19e-05 ± 7.9e-06 s⁻¹ | – | –
3 | A12G G29A | 0.000356 ± 6.4e-05 s⁻¹ | 7170 ± 1900 µM | 8.7e-05 ± 1.7e-05 s⁻¹ | 0.000213 ± 4.3e-05 s⁻¹ | 3.29e-05 ± 1e-05 s⁻¹ | – | –
4 | A12C C67U | 0.00763 ± 0.0029 s⁻¹ | 2210 ± 1000 µM | 0.00322 ± 0.00048 s⁻¹ | 0.00923 ± 0.0012 s⁻¹ | 0.00137 ± 0.0002 s⁻¹ | 0.000156 ± 1.3e-05 s⁻¹ | 0.000508 ± 5.5e-05 s⁻¹
5 | C11U C67U | 0.000394 ± 2.4e-05 s⁻¹ | 925 ± 130 µM | 0.000278 ± 3e-05 s⁻¹ | 0.000364 ± 3.9e-05 s⁻¹ | 0.000171 ± 1.8e-05 s⁻¹ | – | 5.21e-05 ± 1e-05 s⁻¹
6 | A12C G41C | 4.9e-05 ± 9.3e-06 s⁻¹ | – | 7.35e-05 ± 3.2e-05 s⁻¹ | 4.45e-05 ± 1.1e-05 s⁻¹ | – | – | –
7 | A12U G59U | 1.03e-05 ± 1e-06 s⁻¹ | – | – | – | – | – | –
8 | A12C C61U | 1.24e-05 ± 3.6e-06 s⁻¹ | – | – | – | – | < 1e-05 s⁻¹ | –
9 | A12U G40A C71U | 0.101 ± 0.05 s⁻¹ | – | – | 0.116 ± 0.047 s⁻¹ | 0.0194 ± 0.007 s⁻¹ | 0.00209 ± 0.0003 s⁻¹ | –
10 | C11U C50A | < 1e-05 s⁻¹ | – | – | < 1e-05 s⁻¹ | – | – | < 1e-05 s⁻¹
11 | G13A A39U | 0.000349 ± 1.8e-05 s⁻¹ | 2910 ± 270 µM | 0.000153 ± 2e-05 s⁻¹ | 0.000277 ± 3.4e-05 s⁻¹ | 6.49e-05 ± 8.9e-06 s⁻¹ | – | –
12 | G13A A39C | 0.000118 ± 1.9e-05 s⁻¹ | 3740 ± 1200 µM | 4.55e-05 ± 7.4e-06 s⁻¹ | 8.77e-05 ± 1.6e-05 s⁻¹ | – | – | –
13 | A12G G41A | 0.00048 ± 0.00011 s⁻¹ | 9920 ± 3500 µM | 8.85e-05 ± 1.7e-05 s⁻¹ | 0.000246 ± 3.7e-05 s⁻¹ | 3.72e-05 ± 1.2e-05 s⁻¹ | – | –
14 | A12G G41C | 0.000171 ± 2.4e-05 s⁻¹ | – | 3.14e-05 ± 1.1e-05 s⁻¹ | 8.02e-05 ± 1.1e-05 s⁻¹ | – | < 1e-05 s⁻¹ | –
15 | A12U U56C | 0.0355 ± 0.014 s⁻¹ | 2940 ± 1400 µM | – | 0.0251 ± 0.0075 s⁻¹ | 0.00808 ± 0.0013 s⁻¹ | 0.000487 ± 0.00011 s⁻¹ | 0.00159 ± 0.00028 s⁻¹
16 | A12U U56G | 0.0516 ± 0.013 s⁻¹ | 1320 ± 390 µM | – | 0.0461 ± 0.011 s⁻¹ | 0.0197 ± 0.0057 s⁻¹ | 0.00172 ± 0.0002 s⁻¹ | 0.00468 ± 0.00073 s⁻¹
17 | A12U G37U | 3.51e-05 ± 1.1e-05 s⁻¹ | – | – | – | – | – | –
18 | C11U U47G | 0.000176 ± 3.3e-05 s⁻¹ | – | 0.000191 ± 3.3e-05 s⁻¹ | 0.000149 ± 2.2e-05 s⁻¹ | 7.97e-05 ± 1.3e-05 s⁻¹ | – | –
